Values belong to the substance of their own block, whether it stands above or below them.
How the values were obtained:
CD28 receptor (human) [1] = molecular target: CD28 receptor (human) (UniProt P10747); assay: cell-based or functional assay
[2] = molecular target: CD28Ig fusion protein (human) (UniProt P10747); assay: competition of ^125I-B7Ig binding to immobilized CD28Ig by unlabeled B7Ig
[3] = molecular target: CD28Ig fusion protein (human) (UniProt P10747); assay: plate binding assay, ^125I-B7Ig (24 nM) on immobilized CD28Ig
CD28 receptor (human) [4] = molecular target: CD28 receptor (human) (UniProt P10747); assay: flow cytometry, FITC-conjugated mAb 9.3 on phytohemagglutinin-stimulated T cells
CD28 receptor (human) [5] = molecular target: CD28 receptor (human) (UniProt P10747); assay: flow cytometry, FITC-conjugated mAb 9.3 on CD28^+ CHO cells
[6] = molecular target: CD28Ig fusion protein (human) (UniProt P10747); assay: competition of ^125I-B7Ig binding to immobilized CD28Ig by the unlabeled competitor
[7] = molecular target: CD28Ig fusion protein (human) (UniProt P10747); assay: competition of ^125I-B7Ig binding to immobilized CD28Ig
B7 antigen (human) [8] = molecular target: B7 antigen (human) (UniProt P33681); assay: flow cytometry, Raji cells; -cold minus +cold
B7 antigen (human) [9] = molecular target: B7 antigen (human) (UniProt P33681); assay: flow cytometry, 5E1 cells preincubated with unlabeled BB-1
B7 antigen (human) [10] = molecular target: B7 antigen (human) (UniProt P33681); assay: flow cytometry, HL60 cells preincubated with unlabeled BB-1 (negative for CD28 adhesion)
B7 antigen (human) [11] = molecular target: B7 antigen (human) (UniProt P33681); assay: flow cytometry, direct staining of Namalwa cells (negative for CD28 adhesion; presence of B7 not shown)
B7 antigen (human) [12] = molecular target: B7 antigen (human) (UniProt P33681); assay: cell-based or functional assay
B7 antigen (human) [13] = molecular target: B7 antigen (human) (UniProt P33681); assay: flow cytometry, Jijoye cells; -cold minus +cold
B7 antigen (human) [14] = molecular target: B7 antigen (human) (UniProt P33681); assay: flow cytometry, direct staining of THP-1 cells (negative for CD28 adhesion; presence of B7 not shown)
B7 antigen (human) [15] = molecular target: B7 antigen (human) (UniProt P33681); assay: flow cytometry, Namalwa cells (negative for CD28 adhesion); -cold minus +cold
B7 antigen (human) [16] = molecular target: B7 antigen (human) (UniProt P33681); assay: flow cytometry, HSB2 cells preincubated with unlabeled BB-1 (negative for CD28 adhesion)
B7 antigen (human) [17] = molecular target: B7 antigen (human) (UniProt P33681); assay: flow cytometry, 1A2 cells preincubated with unlabeled BB-1 (negative for CD28 adhesion)
B7 antigen (human) [18] = molecular target: B7 antigen (human) (UniProt P33681); assay: flow cytometry, direct staining of Raji cells (positive for CD28 adhesion)
B7 antigen (human) [19] = molecular target: B7 antigen (human) (UniProt P33681); assay: flow cytometry, Daudi cells preincubated with unlabeled BB-1
B7 antigen (human) [20] = molecular target: B7 antigen (human) (UniProt P33681); assay: flow cytometry, direct staining of HSB2 cells (negative for CD28 adhesion; presence of B7 not shown)
B7 antigen (human) [21] = molecular target: B7 antigen (human) (UniProt P33681); assay: flow cytometry, THP-1 cells preincubated with unlabeled BB-1 (negative for CD28 adhesion)
B7 antigen (human) [22] = molecular target: B7 antigen (human) (UniProt P33681); assay: flow cytometry, direct staining of Jijoye cells (positive for CD28 adhesion)
B7 antigen (human) [23] = molecular target: B7 antigen (human) (UniProt P33681); assay: flow cytometry, direct staining of 1A2 cells (negative for CD28 adhesion; presence of B7 not shown)
[24] = molecular target: B7Ig fusion protein (human) (UniProt P33681); assay: competition of ^125I-B7Ig binding to immobilized CD28Ig by the unlabeled competitor
B7 antigen (human) [25] = molecular target: B7 antigen (human) (UniProt P33681); assay: flow cytometry, Raji cells preincubated with unlabeled BB-1
B7 antigen (human) [26] = molecular target: B7 antigen (human) (UniProt P33681); assay: flow cytometry, T51 cells; -cold minus +cold
B7 antigen (human) [27] = molecular target: B7 antigen (human) (UniProt P33681); assay: flow cytometry, Daudi cells; -cold minus +cold
B7 antigen (human) [28] = molecular target: B7 antigen (human) (UniProt P33681); assay: flow cytometry, direct staining of 5E1 cells (positive for CD28 adhesion)
B7 antigen (human) [29] = molecular target: B7 antigen (human) (UniProt P33681); assay: flow cytometry, direct staining of HL60 cells (negative for CD28 adhesion; presence of B7 not shown)
B7 antigen (human) [30] = molecular target: B7 antigen (human) (UniProt P33681); assay: flow cytometry, 5E1 cells; -cold minus +cold
B7 antigen (human) [31] = molecular target: B7 antigen (human) (UniProt P33681); assay: flow cytometry, direct staining of Daudi cells (positive for CD28 adhesion)
B7 antigen (human) [32] = molecular target: B7 antigen (human) (UniProt P33681); assay: flow cytometry, Jijoye cells preincubated with unlabeled BB-1
B7 antigen (human) [33] = molecular target: B7 antigen (human) (UniProt P33681); assay: flow cytometry, CEM cells preincubated with unlabeled BB-1 (negative for CD28 adhesion)
B7 antigen (human) [34] = molecular target: B7 antigen (human) (UniProt P33681); assay: flow cytometry, T51 cells preincubated with unlabeled BB-1
B7 antigen (human) [35] = molecular target: B7 antigen (human) (UniProt P33681); assay: flow cytometry, direct staining of T51 cells (positive for CD28 adhesion)

[^3H]-T incorporation of PBL, B7Ig (immob.), +Anti-CD3, Exp. 1 (CD28 receptor (human) [1]): 174000 cpm
[^3H]-T incorporation of PBL, B7Ig (immob.), -Anti-CD3, Exp. 1 (CD28 receptor (human) [1]): 100 cpm
IC50 [2]: 280 nM
radioactivity bound without competitor [3]: 7800 cpm
Substance: B7Ig fusion protein (from UniProt P33681 35-215; P01857 99-330) (Fc fusion)

mean channel (linear fluorescence units) (linear fluorescence units) (CD28 receptor (human) [4]): 11.3
[^3H]-T incorporation of PBL, mAb 9.3 (immob.), +Anti-CD3, Exp. 1 (CD28 receptor (human) [1]): 137000 cpm
[^3H]-T incorporation of PBL, mAb 9.3 (immob.), -Anti-CD3, Exp. 1 (CD28 receptor (human) [1]): 100 cpm
[^3H]-T incorporation of PBL, mAb 9.3 (soln.), +Anti-CD3, Exp. 1 (CD28 receptor (human) [1]): 156000 cpm
[^3H]-T incorporation of PBL, mAb 9.3 (soln.), +Anti-CD3, Exp. 2 (CD28 receptor (human) [1]): 75800 cpm
[^3H]-T incorporation of PBL, mAb 9.3 (soln.), -Anti-CD3, Exp. 1 (CD28 receptor (human) [1]): 300 cpm
[^3H]-T incorporation of PBL, mAb 9.3 (soln.), -Anti-CD3, Exp. 2 (CD28 receptor (human) [1]): 400 cpm
adhesion of B7 transfected COS cells to CD28^+ CHO cells without EDTA, blocking by mAb 9.3 (CD28 receptor (human) [1]): 40%
adhesion of T51 cells to CD28^+ CHO cells, reduction by mAb 9.3 with EDTA (CD28 receptor (human) [1]): 93%
adhesion of T51 cells to CD28^+ CHO cells, reduction by mAb 9.3 without EDTA (CD28 receptor (human) [1]): 62%
half-maximal inhibition of CD28-mediated adhesion of PM lymphoblastoid cells to CD28^+ CHO cells (CD28 receptor (human) [1]): 10 nM
mean channel (linear fluorescence units) (linear fluorescence units) (CD28 receptor (human) [5]): 116
IC50 [6]: 4.3 nM
fold more effective as a competitor than B7Ig [7]: 65 fold
Substance: Monoclonal antibody (mAb) 9.3 (anti-CD28)

SPECIFIC BINDING (mean fluorescence) (B7 antigen (human) [8]): 4.3 linear units
mean fluorescence, FITC-BB-1 +COLD (B7 antigen (human) [9]): 2.4 linear units
mean fluorescence, FITC-BB-1 +COLD (B7 antigen (human) [10]): 3.1 linear units
mean fluorescence, FITC-BB-1 -COLD (B7 antigen (human) [11]): 3.8 linear units
[^3H]-T incorporation of PHA blasts, stimulation B7^+ CHO, mAb BB-1 (B7 antigen (human) [12]): 98300 cpm
adhesion of Jijoye cells to CD28^+ CHO cells, blocking by mAb (B7 antigen (human) [12]): 60%
SPECIFIC BINDING (mean fluorescence) (B7 antigen (human) [13]): 15 linear units
mean fluorescence, FITC-BB-1 -COLD (B7 antigen (human) [14]): 3.1 linear units
SPECIFIC BINDING (mean fluorescence) (B7 antigen (human) [15]): 1.6 linear units
mean fluorescence, FITC-BB-1 +COLD (B7 antigen (human) [16]): 2.3 linear units
mean fluorescence, FITC-BB-1 +COLD (B7 antigen (human) [17]): 4.3 linear units
mean fluorescence, FITC-BB-1 -COLD (B7 antigen (human) [18]): 7.1 linear units
mean fluorescence, FITC-BB-1 +COLD (B7 antigen (human) [19]): 2.8 linear units
mean fluorescence, FITC-BB-1 -COLD (B7 antigen (human) [20]): 2.3 linear units
mean fluorescence, FITC-BB-1 +COLD (B7 antigen (human) [21]): 3 linear units
mean fluorescence, FITC-BB-1 -COLD (B7 antigen (human) [22]): 17.8 linear units
mean fluorescence, FITC-BB-1 -COLD (B7 antigen (human) [23]): 4.5 linear units
IC50 [24]: 140 nM
mean fluorescence, FITC-BB-1 +COLD (B7 antigen (human) [25]): 2.8 linear units
SPECIFIC BINDING (mean fluorescence) (B7 antigen (human) [26]): 13.4 linear units
SPECIFIC BINDING (mean fluorescence) (B7 antigen (human) [27]): 3.6 linear units
mean fluorescence, FITC-BB-1 -COLD (B7 antigen (human) [28]): 13 linear units
mean fluorescence, FITC-BB-1 -COLD (B7 antigen (human) [29]): 3.1 linear units
SPECIFIC BINDING (mean fluorescence) (B7 antigen (human) [30]): 10.6 linear units
mean fluorescence, FITC-BB-1 -COLD (B7 antigen (human) [31]): 6.4 linear units
mean fluorescence, FITC-BB-1 +COLD (B7 antigen (human) [32]): 2.8 linear units
mean fluorescence, FITC-BB-1 +COLD (B7 antigen (human) [33]): 1.9 linear units
mean fluorescence, FITC-BB-1 +COLD (B7 antigen (human) [34]): 3 linear units
mean fluorescence, FITC-BB-1 -COLD (B7 antigen (human) [35]): 16.4 linear units
Substance: mAb BB-1 (anti-B7) (antibody)

[^3H]-T incorporation of PHA blasts, stimulation B7^+ CHO, mAb 9.3 Fab (CD28 receptor (human) [1]): 132000 cpm
Substance: mAb 9.3 (Fab fragments)
